The source of these data is the supplement of paper PMC7877785.

± gives the uncertainty stated by the source.

A short description of this series: self-splicing fitness, log relative to wild type (ln ratio); higher = more splicing; Tetrahymena group I intron in knt gene, E. coli kanamycin selection, DiMSum; sequences stand for … in CUCUCU…GGAGGGAAAAGUUAUCAGGCAUGCACCUGGUAGCUAGUCUUUAAACCAAUAGAUUGCAUCGGUUUAAAAGGCAAGACCGUCAAAUUGCGGGAAAGGGGUCAACAGCCGUUCAGUACCAAGUCUCAGGGGAAACUUUGAGAUGGCCUUGCAAAGGGUAUGGUAAUAAGCUGACGGACAUGGUCCUAACCACGCAGCCAAGUCCUAAGUCAACAGAUCUUCUGUUGAUAUGGAUGCAGUUCACAGACUAAAUGUCGGUCGGGGAAGAUGUAUUCUUCUCAUAAGAUAUAGUCGGACCUCUCCUUAAUGGGAGCUAGCGGAUGAAGUGAUGCAACACUGGAGCCGCUGGGAACUAAUUUGUAUGCGAAAGUAUAUUGAUUAGUUUUGGAGUACUCGUGGUCG
The method, boiled down:
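Colonies from six replicate transformations of E. coli BL21(DE3) were pooled and amplicon-sequenced on an Illumina HiSeq 2500. The library placed an intron with all eight P1ex-region nucleotides randomised inside the knt kanamycin-resistance gene on pET-22b(+), and cells grew overnight at 37°C or 30°C on LB agar with or without 25 μg/mL kanamycin (plus 100 μg/mL carbenicillin, 50 μM IPTG, 0.2% rhamnose). Fitness is the DiMSum error-weighted combination of wild-type-normalised replicate fold changes, kanamycin versus none.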

As for CAAUAGCAAUAUUACGAUCA, the “self-splicing fitness (ln)” value reads like this: (30 °C) -2.41 ± 0.17; (37 °C) -2.17 ± 0.16.

In the case of CGCAAGCAAUAUUACGAUAG, the “self-splicing fitness (ln)” value (30 °C) was -0.276 ± 0.066 and the “self-splicing fitness (ln)” value (37 °C) turned out to be 0.36 ± 0.092.

Turning to GCAAAGCAAUAUUACGACUG, the “self-splicing fitness (ln)” value by setting is: (30 °C) -1.3 ± 0.13; (37 °C) -0.673 ± 0.15.

AAGUAGCAAUAUUACGGUCU: the “self-splicing fitness (ln)” value reads like this: (30 °C) -0.291 ± 0.062; (37 °C) -0.0526 ± 0.086.

With AUGAAGCAAUAUUACGUUUA, the “self-splicing fitness (ln)” value reads like this: (30 °C) -0.538 ± 0.061; (37 °C) -0.537 ± 0.079.

For the sequence CUUCAGCAAUAUUACGGAGA, the “self-splicing fitness (ln)” value is -3.47 ± 0.21 (30 °C) and -3.04 ± 0.19 (37 °C).

Take UGUAAGCAAUAUUACGGCAC: the “self-splicing fitness (ln)” value was -1.49 ± 0.24 (30 °C) and -1.48 ± 0.42 (37 °C).

As to AUGAAGCAAUAUUACGAAUA, the “self-splicing fitness (ln)” value is -1.17 ± 0.11 (30 °C) and -0.537 ± 0.17 (37 °C).

Regarding UGCCAGCAAUAUUACGCGAA, the “self-splicing fitness (ln)” value (30 °C) was -1.33 ± 0.11 and the “self-splicing fitness (ln)” value (37 °C) was 0.357 ± 0.11.

With CAUAAGCAAUAUUACGCGAA, the “self-splicing fitness (ln)” value (30 °C) is -2.82 ± 0.25 and the “self-splicing fitness (ln)” value (37 °C) is -2.59 ± 0.34.

Regarding AACGAGCAAUAUUACGUACG, the “self-splicing fitness (ln)” value was -4.19 ± 0.46 (30 °C) and -1.63 ± 0.35 (37 °C).

Consider CGGAAGCAAUAUUACGACGC, for which, where the note is “37 °C”, the “self-splicing fitness (ln)” value was -0.637 ± 0.37.

Regarding AUCUAGCAAUAUUACGACCG, the “self-splicing fitness (ln)” value is, setting by setting: (30 °C) -0.961 ± 0.39; (37 °C) -0.253 ± 0.33.

Take GGGCAGCAAUAUUACGUUAU: the “self-splicing fitness (ln)” value was -1.68 ± 0.097 (30 °C) and -0.345 ± 0.12 (37 °C).

Turning to UCUCAGCAAUAUUACGCAGA, the “self-splicing fitness (ln)” value (30 °C) is -2.73 ± 0.49.

Consider CACGAGCAAUAUUACGCUGG, for which the “self-splicing fitness (ln)” value is -3.66 ± 0.16 (30 °C) and -2.32 ± 0.16 (37 °C).

Regarding AGUUAGCAAUAUUACGUUAU, the “self-splicing fitness (ln)” value reads like this: (30 °C) -3.25 ± 0.17; (37 °C) -2.08 ± 0.17.

On to AAGAAGCAAUAUUACGAUUC, for which the “self-splicing fitness (ln)” value (30 °C) is -1.49 ± 0.1 and the “self-splicing fitness (ln)” value (37 °C) was -0.941 ± 0.14.

As to UAGAAGCAAUAUUACGUAAG, the “self-splicing fitness (ln)” value is -2.31 ± 0.13 (30 °C) and -1.3 ± 0.16 (37 °C).

For the sequence UUCCAGCAAUAUUACGCUCG, for the setting “37 °C”, the “self-splicing fitness (ln)” value was -0.977 ± 0.23.

Consider UGUGAGCAAUAUUACGGUCG, for which the “self-splicing fitness (ln)” value was -0.638 ± 0.094 (30 °C) and -0.935 ± 0.12 (37 °C).

With AUGCAGCAAUAUUACGCUCA, the “self-splicing fitness (ln)” value (30 °C) was -0.858 ± 0.061 and the “self-splicing fitness (ln)” value (37 °C) was -0.215 ± 0.075.

As for GCGCAGCAAUAUUACGUAUG, the “self-splicing fitness (ln)” value reads like this: (30 °C) -3.67 ± 0.23; (37 °C) -1.8 ± 0.21.

Regarding UGCGAGCAAUAUUACGUGGU, the “self-splicing fitness (ln)” value reads like this: (30 °C) -3.4 ± 0.18; (37 °C) -2.63 ± 0.21.

Take GAAUAGCAAUAUUACGCAGA: the “self-splicing fitness (ln)” value was -2.53 ± 0.16 (30 °C) and -1.34 ± 0.14 (37 °C).

With CGCAAGCAAUAUUACGACAC, the “self-splicing fitness (ln)” value (30 °C) is -2.89 ± 0.29 and the “self-splicing fitness (ln)” value (37 °C) is -0.474 ± 0.22.

UUGGAGCAAUAUUACGUGCU: the “self-splicing fitness (ln)” value (37 °C) was -2.64 ± 0.34.

For GGCCAGCAAUAUUACGCUUU, the “self-splicing fitness (ln)” value reads like this: (30 °C) -0.464 ± 0.064; (37 °C) 0.4 ± 0.087.

Take UCCGAGCAAUAUUACGUGUC: the “self-splicing fitness (ln)” value (37 °C) is -2.64 ± 0.34.

Turning to GUAGAGCAAUAUUACGGGCG, the “self-splicing fitness (ln)” value is -1.68 ± 0.12 (30 °C) and -1.19 ± 0.15 (37 °C).

In the case of GGUGAGCAAUAUUACGCUCG, the “self-splicing fitness (ln)” value (37 °C) is -1.37 ± 0.4.

For the sequence CUUGAGCAAUAUUACGUCAU, the “self-splicing fitness (ln)” value by setting is: (30 °C) -3.58 ± 0.29; (37 °C) -2.88 ± 0.31.

With CCUAAGCAAUAUUACGAUUU, the “self-splicing fitness (ln)” value by setting is: (30 °C) -3.8 ± 0.25; (37 °C) -0.794 ± 0.23.

As to CUCUAGCAAUAUUACGAAAC, the “self-splicing fitness (ln)” value (30 °C) is -2.61 ± 0.35.

With CGCUAGCAAUAUUACGGUCC, the “self-splicing fitness (ln)” value is -1.48 ± 0.12 (30 °C) and -0.153 ± 0.15 (37 °C).

Take AAAGAGCAAUAUUACGGUAG: the “self-splicing fitness (ln)” value runs as follows: (30 °C) -3.9 ± 0.27; (37 °C) -2.11 ± 0.18.

For GUCCAGCAAUAUUACGGGAU, the “self-splicing fitness (ln)” value runs as follows: (30 °C) -4.04 ± 0.2; (37 °C) -2.76 ± 0.22.

In the case of CUAGAGCAAUAUUACGUUUC, the “self-splicing fitness (ln)” value reads like this: (30 °C) -4.04 ± 0.31; (37 °C) -2.01 ± 0.28.

Consider GCACAGCAAUAUUACGUUCC, for which the “self-splicing fitness (ln)” value was -1.85 ± 0.078 (30 °C) and -0.808 ± 0.11 (37 °C).

For the sequence UGAUAGCAAUAUUACGCUUA, the “self-splicing fitness (ln)” value runs as follows: (30 °C) -2.07 ± 0.12; (37 °C) -0.143 ± 0.12.
